# Results from paper PMC7611088 (Nature methods, 2021).
# B1: membrane scaffold protein MSP1D1 (other)
# chain: STFSKLREQLGPVTQEFWDNLEKETEGLRQEMSKDLEEVKAKVQPYLDDFQKKWQEEMELYRQKVEPLRAELQEGARQKLHELQEKLSPLGEEMRDRARAHVDALRTHLAPYSDELRQRLAARLEALKENGGARLAEYHAKATEHLSTLSEKAKPALEDLRQGLLPVLESFKVSFLSALEEYTKKLNTQ
# modifications: biotinylated with EZ-link NHS-Biotin (biotin/antigen ratio 2 - 2.5) for BLI only
# Target: MbNbF3^c7HopQ (H. pylori)
# Assay: BLI
binder,measurement,value
B1,binding result,binds
